Test results published in PMC3234860 (The Journal of Biological Chemistry, 2011).

Experiments:
native MS = molecular target: the molecule itself; experiment: native MS
Sfr1 = molecular target: T1, Sfr1 (S. pombe, UniProt Q9USV1 1-299); experiment: AUC
T1 sequence: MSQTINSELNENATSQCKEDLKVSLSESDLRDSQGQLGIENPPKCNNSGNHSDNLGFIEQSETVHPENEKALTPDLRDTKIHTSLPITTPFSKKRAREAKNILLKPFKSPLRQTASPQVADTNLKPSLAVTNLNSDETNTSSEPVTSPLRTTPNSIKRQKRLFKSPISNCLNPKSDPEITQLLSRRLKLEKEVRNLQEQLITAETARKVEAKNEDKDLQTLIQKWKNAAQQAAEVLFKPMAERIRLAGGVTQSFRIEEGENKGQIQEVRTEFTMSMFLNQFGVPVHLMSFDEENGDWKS

stoichiometry N (Sfr1): 1 Swi5:Sfr1
B1: Swi5 (natural protein)
chain: MEKSQLESRVHLLEQQKEQLESSLQDALAKLKNRDAKQTVQKHIDLLHTYNEIRDIALGMIGKVAEHEKCTSVELFDRFGVNGSE
stoichiometry N (native MS): 2
